We go through 2 molecules from PMC4742118, “The ON:OFF switch, σ1R-HINT1 protein, controls GPCR-NMDA receptor cross-regulation: Implications in neurological disorders” (Oncotarget, 2015).

B1: recombinant HINT1 protein (natural protein, mouse, UniProt P70349 1-126, looked up)
chain: MADEIAKAQVAQPGGDTIFGKIIRKEIPAKIIFEDDRCLAFHDISPQAPTHFLVIPKKHISQISVADDDDESLLGHLMIVGKKCAADLGLKRGYRMVVNEGADGGQSVYHIHLHVLGGRQMNWPPG
notes: HINT1, coding region of NM_008248, amplified from mouse brain RNA; also called PKCI/HINT1; source: E. coli BL21 (KRX), purified (GSTrap FF; when necessary cleaved with ProTEV and electroeluted)

What all share (settings): both partners purified
Experiment [1] has as its target T1, GST-σ1R (murine, UniProt O55242 1-223).
T1 construct: murine full-length (1-223) σ1R, GenBank AF004927, cloned downstream of GST and a TEV protease site; also called GST-tagged σ1 receptor; source: E. coli BL21 (KRX), purified (GSTrap FF); not shown: GST, N-terminal, kept
Briefly: pull-down; HINT1 protomer 200 nM with GST fusion protein 100 nM in 50 mM Tris-HCl pH 7.4, 2.5 mM CaCl2, 0.2% CHAPS, 30 min RT; captured on glutathione Sepharose 4B; Western blot. On the technique in general: Immunoblotting shows a protein as a band on a membrane.

Experiment [2] concerns the target T2, recombinant σ1R (murine, UniProt O55242 1-223).
T2 construct: murine full-length (1-223) σ1R, GenBank AF004927; Used as prey; also called sigma 1 receptor; source: E. coli BL21 (KRX), purified (GSTrap FF; when necessary cleaved with ProTEV and electroeluted)
Briefly: pull-down; bait (GST-NR1 C0-C1-C2 or GST-MOR) covalently attached to NHS-activated Sepharose; σ1R 100 nM in 50 mM Tris-HCl pH 7.4, 0.2% CHAPS, 30 min RT; 0 mM CaCl2; Western blot.

The target in experiment [3] is B1. Briefly: pull-down; displacement assay: HINT1 200 nM preincubated with agarose-NR1 or agarose-MOR in 50 mM Tris-HCl pH 7.5, 2.5 mM CaCl2, 0.2% CHAPS at RT; free HINT1 removed; σ1R added (100 nM, 300 nM or 1 uM on NR1; 300 nM on MOR); Western blot of bound HINT1 and σ1R.

T2 sequence (O55242 whole entry): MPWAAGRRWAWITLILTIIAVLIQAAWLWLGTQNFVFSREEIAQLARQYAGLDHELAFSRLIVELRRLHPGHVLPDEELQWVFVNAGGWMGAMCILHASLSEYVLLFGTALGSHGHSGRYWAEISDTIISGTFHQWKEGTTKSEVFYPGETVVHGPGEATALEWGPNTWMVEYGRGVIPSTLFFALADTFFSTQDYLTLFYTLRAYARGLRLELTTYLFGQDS
T1 sequence (O55242 whole entry): as above

With B1, the binding result in experiment [1] is recorded as “binds”.

B2: GST-MOR (domain or fragment, mus musculus, UniProt P42866 286-398, looked up)
chain: VAVFIVCWTPIHIYVIIKALITIPETTFQTVSWHFCIALGYTNSCLNPVLYAFLDENFKRCFREFCIPTSSTIEQQNSARIRQNTREHPSTANTVDRTNHQLENLEAETAPLP
notes: C-terminal region of mus musculus MOR1 (AB047546), residues 286-398; the methods speak of MOR Ct; also called GST-tagged MOR; MOR Ct; source: E. coli BL21 (KRX), purified (GSTrap FF); not shown: GST, N-terminal, kept
Turning to B2, the binding result in experiment [2] and in experiment [3] was “binds” throughout.
